{"source": "paper PMC3474823", "biological_target": "HA-LIMK2 (pcDNA3-(HA)2-LIMK2) (UniProt P53671)", "sequence (P53671 whole entry)": "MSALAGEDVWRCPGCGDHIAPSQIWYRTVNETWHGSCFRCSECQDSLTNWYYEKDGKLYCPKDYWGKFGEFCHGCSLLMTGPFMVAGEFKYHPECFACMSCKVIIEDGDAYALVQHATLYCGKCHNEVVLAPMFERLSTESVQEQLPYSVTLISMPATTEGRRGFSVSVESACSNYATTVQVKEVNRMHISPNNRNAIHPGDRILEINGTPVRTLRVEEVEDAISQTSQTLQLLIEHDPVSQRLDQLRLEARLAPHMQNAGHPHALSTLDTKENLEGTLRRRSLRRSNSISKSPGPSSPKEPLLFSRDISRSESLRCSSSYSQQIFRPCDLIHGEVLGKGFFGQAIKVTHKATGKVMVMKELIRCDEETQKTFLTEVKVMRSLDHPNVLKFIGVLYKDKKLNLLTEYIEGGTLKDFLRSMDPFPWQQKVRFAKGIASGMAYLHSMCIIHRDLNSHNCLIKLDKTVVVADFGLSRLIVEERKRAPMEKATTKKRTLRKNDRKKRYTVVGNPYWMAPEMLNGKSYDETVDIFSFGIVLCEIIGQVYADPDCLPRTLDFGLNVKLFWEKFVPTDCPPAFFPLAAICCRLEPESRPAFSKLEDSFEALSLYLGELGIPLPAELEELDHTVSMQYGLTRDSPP"}
{"substance": "flag-SecPH (p3XFlag-SecPH) (domain or fragment)", "values": [{"measurement": "kinase activity of anti-HA-LIMK2 immunoprecipitate on GST-cofilin (32P, P-cofilin), cells cotransfected with SecPH against the control Galectin-3", "result": 20, "unit": "%"}]}
